Entries after “also recorded” stand apart in the source; their conditions may differ.
B1: Construct 1: GAPDH-targeting construct encoding modified ERT2 peptide-suicide protein fusion polypeptide ERT2*mut81-Casp9, SEQ ID NO: 44 (protein)
chain: AGDMRAANLWPSPLMIKRSKKNSLALSLTADQMVSALLDAEPPILYSEYDPTRPFSEASMMGLLTNLADRELVHMINWAKRVPGFVDLTLHDQVHLLECAWMEILMIGVVWRSMEHPVKLLFAPNLLLDRDQGKCVEGLVEIFDMLLATSSRFRMMNLQGEEFVCLKSIILLNSGVYTFLPSTLKSLEEKDHIHRVLDKITDTLIHLMAKAGLTLQQQHQRLAQLLLILSHIRHMSNKGMELLYSMKCKNVVPLYDLLLEAADAHRLHAPTSRGGASVEETDQSHLATAGSTSSHSLQKYYITGEAEGFPATGGGGSGGGGSGGGGSVDGFMDVGALESLRGNADLAYILSMEPCGHCLIINNVNFCRESGLRTRTGSNIDCEKLRRRFSSLHFMVEVKGDLTAKKMVLALLELARQDHGALDCCVVVILSHGCQASHLQFPGAVYGTDGCPVSVEKIVNIFNGTSCPSLGGKPKLFFIQACGGEQKDHGFEVASTSPEDESPGSNPEPDATPFQEGLRTFDQLDAISSLPTPSDIFVSYSTFPGFVSWRDPKSGSWYVETLDDIFEQWAHSEDLQSLLLRVANAVSVKGIYKQMPGCFNFLRKKLFFKTS
B2: Construct 2: GAPDH-targeting construct encoding fusion polypeptide ERT2*mut88-Casp9, SEQ ID NO: 46 (protein)
chain: AGDMRAANLWPSPLMIKRSKKNSLALSLTADQMVSALLDAEPPILYSEYDPTRPFSEASMMGLLTNLADRELVHMINWAKRVPGFVDLTLHDQVHLLECAWLEILMIGVVWRSMEHPVKLLFAPNLLLDRDEGKCVEGMVEIFDMLLATSSRFRMMNLQGEEFVCLKSIILLNSGVYTFLPSTLKSLEEKDHIHRVLDKITDTLIHLMAKAGLTLQQQHQRLAQLLLILSHIRHMSNKGMEFLYSMKCKNVVPLYDLLLEAADAHRLHAPTSRGGASVEETDQSHLATAGSTSSHSLQKYYITGEAEGFPATGGGGSGGGGSGGGGSVDGFMDVGALESLRGNADLAYILSMEPCGHCLIINNVNFCRESGLRTRTGSNIDCEKLRRRFSSLHFMVEVKGDLTAKKMVLALLELARQDHGALDCCVVVILSHGCQASHLQFPGAVYGTDGCPVSVEKIVNIFNGTSCPSLGGKPKLFFIQACGGEQKDHGFEVASTSPEDESPGSNPEPDATPFQEGLRTFDQLDAISSLPTPSDIFVSYSTFPGFVSWRDPKSGSWYVETLDDIFEQWAHSEDLQSLLLRVANAVSVKGIYKQMPGCFNFLRKKLFFKTS
B3: Construct 4: GAPDH-targeting construct encoding fusion polypeptide ERT2*mut41-Casp9, SEQ ID NO: 50 (protein)
chain: AGDMRAANLWPSPLMIKRSKKNSLALSLTADQMVSALLDAEPPILYSEYDPTRPFSEASMMGLLTNLADREIVHMINWAKRVPGFVDLTLHDQVHLLECAWLEILMIGVVWRSMEHPVKLLFAPNLVLDRDEGKCVEGMVEIFDMLLATSSRFRMMNLQGEEFVCLKSIILLNSGVYTFLSSTLKSLEEKDHIHRVLDKITDTLIHLMAKAGLTLQQQHQRLAQLLLILSHIRHMSNKGMELLYSMKCKNVVPLYDLLLEAADAHRLHAPTSRGGASVEETDQSHLATAGSTSSHSLQKYYITGEAEGFPATGGGGSGGGGSGGGGSVDGFMDVGALESLRGNADLAYILSMEPCGHCLIINNVNFCRESGLRTRTGSNIDCEKLRRRFSSLHFMVEVKGDLTAKKMVLALLELARQDHGALDCCVVVILSHGCQASHLQFPGAVYGTDGCPVSVEKIVNIFNGTSCPSLGGKPKLFFIQACGGEQKDHGFEVASTSPEDESPGSNPEPDATPFQEGLRTFDQLDAISSLPTPSDIFVSYSTFPGFVSWRDPKSGSWYVETLDDIFEQWAHSEDLQSLLLRVANAVSVKGIYKQMPGCFNFLRKKLFFKTS
B4: Construct 3: GAPDH-targeting construct encoding fusion polypeptide ERT2*mut63-Casp9, SEQ ID NO: 48 (protein)
chain: AGDMRAANLWPSPLMIKRSKKNSLALSLTADQMVSALLDAEPPILYSEYDPTRPFSEASMMGLLTNLADREIVHMINWAKRVPGFVDLTLHDQVHLLECAWLEILMIGVVWRSMEHPVKLLFAPNLLLDRDEGKCVEGLVEIFDMLLATSSRFRMMNLQGEEFVCLKSIILLNSGVYTFLSSTLKSLEEKDHIHRVLDKITDTLIHLMAKAGLTLQQQHQRLAQLLLILSHIRHASNKGMEFLYSMKCKNVVPLYDLLLEAADAHRLHAPTSRGGASVEETDQSHLATAGSTSSHSLQKYYITGEAEGFPATGGGGSGGGGSGGGGSVDGFMDVGALESLRGNADLAYILSMEPCGHCLIINNVNFCRESGLRTRTGSNIDCEKLRRRFSSLHFMVEVKGDLTAKKMVLALLELARQDHGALDCCVVVILSHGCQASHLQFPGAVYGTDGCPVSVEKIVNIFNGTSCPSLGGKPKLFFIQACGGEQKDHGFEVASTSPEDESPGSNPEPDATPFQEGLRTFDQLDAISSLPTPSDIFVSYSTFPGFVSWRDPKSGSWYVETLDDIFEQWAHSEDLQSLLLRVANAVSVKGIYKQMPGCFNFLRKKLFFKTS

Legend:
iPSC clones = assay: Apoptotic efficacy in individual construct clones treated with 4-OHT, Endoxifen or combinations; assay type: cell-based, human; conditions: for apoptotic (killing) efficacy: 24 hours
Description: Next, individual clones that were determined to be suitable for further assessments were evaluated for 24 hours in the presence of 4-OHT at two different concentrations.
Individual Construct 1-4 clones were also assessed for their responses to another tamoxifen metabolite, Endoxifen. Clones were evaluated for 24 hours in the presence of Endoxifen at three different concentrations.
Tamoxifen is a prodrug that is broken down into its active metabolites in vivo. To model predicted drug concentrations in a patient, the clone Construct 1 c.165 was treated with various combinations of 4-OHT and Endoxifen, wherein 1.25 nM Endoxifen was combined with a concentration of 4-OHT ranging between 0.125 nM to 1 nM (FIG. 12A). […] In the next evaluation, 0.125 nM 4-OHT was combined with either 0.625 or 1.25 nM Endoxifen (FIG. 12B).

[1] = tested on: PSC-derived myeloid progenitor cells; assay: TamCasp9 Safety Switch activation in PSC-derived myeloid progenitor cells, AOPI staining, Incucyte SX5; assay type: cell-based, human
Description: A hPSC line engineered with TamCasp9 Construct 1 and an unedited parental control hPSC line were differentiated into myeloid progenitor cells through the addition of various growth factors and small molecules. Differentiated cells were plated at 1×10^5 cells/cm^2 in an ultra-low attachment cell culture plate for further myeloid cell maturation. After 7 days in maturation medium, cells were collected and frozen down.
For testing of TamCasp9 Safety Switch activation, myeloid cells were plated at 1.5×10^5 cells/cm^2 in a 96-well tissue culture plate with a 1:750 dilution of ViaStain AOPI Staining Solution (Nexcelom) in X-VIVO 15 Medium with 10 ng/mL GM-CSF. The kill switch was induced with 0, 1, 10 or 100 uM of Endoxifen over 3 days and images were collected every 6 hours on the Incucyte SX5 (Sartorius).
To better model predicted drug concentrations in a patient by testing activation of the kill switch against a range of tamoxifen metabolites, the PSC clone Construct 1 c.165, engineered to incorporate an exemplary modified ERT2 peptide-suicide protein fusion polypeptide construct (Table 3), was differentiated to myeloid progenitor cells as depicted in FIG. 13A. Differentiated cells were plated at 1×10^5 cells/cm^2 in an ultra-low attachment cell culture plate for further myeloid cell maturation. After 7 days in maturation medium, cells were collected and frozen down. For testing of TamCasp9 Safety Switch activation, myeloid cells were plated at 1.0×10^5 cells/cm^2 in a 96-well tissue culture plate with a 1:750 dilution of ViaStain AOPI Staining Solution (Nexcelom) in X-VIVO 15 Medium with 10 ng/mL GM-CSF. The kill switch was induced with varying concentrations of combination 4-OHT and Endoxifen treatment over 4 days and images were collected every 4 hours on the Incucyte SX5, with 12 hour timepoints plotted on a graph (Sartorius) (FIG. 14). Either 2.5 nM or 5 nM of Endoxifen was tested in combination with either 0.5 nM, 1 nM or 10 nM of 4-OHT. 100 nM Endoxifen was added as positive killing control as per FIG. 13E.

human iPSCs [2] = assay: Junction GAPT2A ddPCR of knock-in iPSC pools for integration at GAPDH locus, with or without 4-OHT; assay type: cell-based; conditions: pooled iPSCs treated with 1 nM 4-OHT
Description: Modified ERT2 peptide-suicide protein fusion polypeptide encoding constructs were delivered to human iPSCs via Nucleofection with a GAPDH targeting ribonucleoprotein (RNP) complex comprising of Cpf1 endonuclease and a single guide RNA (sgRNA) targeting the coding sequence of the GAPDH gene. The sgRNA comprised a sequence 5′ […] 3′ (SEQ ID NO: 60). Briefly, iPSCs were cultured in Essential 8 (E8) medium and maintained at 37° C. at 5% CO2 level between passages. Passages were done at 75 to 80% confluency. On the day of Nucleofection, iPSCs were thawed and immediately Nucleofected in Lonza P3 Primary Cell Nucleofection buffer. 7.5 μg of each plasmid construct (BRC00058-61) were Nucleofected into iPSCs using GAPDH Cpf1 RNP with LONZA 4D Nucleofector. The Nucleofected cells were then plated at 50,000 cells/cm^2 per well of a 6-well plate and grown in E8 medium (plus Rock inhibitor Y-27632 from Tocris) for 72 to 96 hours. Knock-in pools were screened for integration 7d post-Nucleofection using ddPCR, as well as conventional PCR.
Whereas the integration dropped from 5.7% to 1% in Construct 1-transfected cell pools and from 4.5% to 0.7% in Construct 2-transfected cell pools when treated with 1 nM 4-OHT (FIG. 4A).

iPSCs = assay: Apoptosis induction in transfected iPSCs monitored by microscopy and Incucyte tracking; assay type: cell-based, human; conditions: construct-transfected iPSCs, 1 nM 4-OHT, up to two days
human iPSCs [3] = assay: Flow cytometric analysis of cleaved Caspase-3 in transfected iPSCs; assay type: cell-based; conditions: 1 nM 4-OHT, two-day treatment
Text: In another set of assessments, Construct 1 or Construct 2 transfected iPSCs were harvested for flow cytometric analysis. The primary antibody used was an anti-human/mouse cleaved Caspase-3. The primary antibody detects human and mouse Caspase 3 cleaved at Asp175.

Row | Molecule | fusion polypeptide sequence integration (junction GAPT2A ddPCR) (human iPSCs [2]) | apoptosis / cell killing (iPSCs) | apoptosis (cleaved Caspase-3 flow cytometry) (human iPSCs [3]) | further results
1 | CC/C(=C(\c1ccc(O)cc1)c1ccc(OCCNC)cc1)c1ccccc1 [Endoxifen, endoxifen, reference compound] |  |  |  | lowest effective concentration in 4-OHT-Endoxifen combination (iPSC clones; clone Construct 1 c.165): 1.25 nM; apoptosis in unedited cells ([1]; unedited differentiated myeloid progenitors, combination 4-OHT and Endoxifen treatment): did not induce apoptosis
2 | B1 | 1% | cells were completely killed by day 2 | able to induce apoptosis in the majority of the cells | apoptotic (killing) efficacy (iPSC clones; 1 nM 4-OHT): displayed higher efficacy than Construct 2-4 clones; also recorded: highest apoptotic efficacy; apoptotic (killing) efficacy (iPSC clones; 1 nM Endoxifen, compared to hygromycin control): approached the level of apoptosis by hygromycin control at 24 hours; apoptosis (kill switch activity) ([1]; 0, 1, 10 or 100 uM of Endoxifen over 3 days): induced apoptosis following endoxifen treatment
3 | B2 | 0.7% | did not induce apoptosis | failed to do so | apoptotic (killing) efficacy (iPSC clones; 5 nM 4-OHT): able to induce apoptosis; apoptotic (killing) efficacy (iPSC clones; 10 nM Endoxifen, compared to hygromycin kill control): able to induce apoptosis
4 | B3 | 2.3% | cells were completely killed by day 2 |  | 
5 | B4 | 1.4% | cells were completely killed by day 2 |  | 
